Test results reported in the supplement of paper PMC9170038.

Test system: MS2 coat protein
Test: apparent KD of MS2 coat protein; designed switch direction (-1 OFF switch, 1 ON switch): -1; higher = weaker reporter binding
Method in brief: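 For each design, the apparent KD is the median over clusters of curves fitted to normalised cluster fluorescence. Clusters held RNA switches with common flanks, transcribed on Illumina chips by stalled E. coli RNA polymerase. These were titrated with SNAP-549-labelled MS2 coat protein, doubling from 0.7 or 1.5 nM to 3 µM, without input, with 200 uM small-molecule ligand, or with an oligonucleotide input.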

[1] = Eterna round: R95, input ligand: microRNA oligo, concentration not stated
[2] = Eterna round: R95, input ligand: FMN 200 uM
[3] = Eterna round: R95, input ligand: none
[4] = input ligand: microRNA oligo, concentration not stated

Sequence | apparent KD of MS2 coat protein [1] [nM] | apparent KD of MS2 coat protein (input ligand: FMN 200 uM) [nM] | apparent KD of MS2 coat protein (input ligand: none) [nM] | also measured
AUACCACGAGGAUAUCGUCUAUUCCACAUGAGGAUCACCCAUGUUAUCCAUGUUUCGUUUCGAGAAGGCGUGGGUU [JR_E5_Sub074] (puzzle: Exclusion 5) | 45.9 |  |  | 
ACCUUACAUGAGGAUCACCCAUGUCAGGAUAUCUCGGACGGCUGAAAACCAACCGUCCAGAGAAGGGACGAGGA [Solamaso] (puzzle: Exclusion 1) | 12.5 |  |  | 
UAUGCCUUUGUGAGGAUAUACUUUGUUUGGUCGUAGUAGAAGGCACAUGAGGAUCACCCAUGUAGAUUUUUGGU [JR_BME4_Sub012] (puzzle: Brourd's mod of Exclusion 4) | 25.4 |  |  | 
GAUAGACAUGAGGAUCACCCAUGUGAGGAUAUGCGUACGUUGUCAGUAGGCGACGUGCGCAGAAGGCGCAAGUU [Mat - Mod of JL D91] (puzzle: Exclusion 1) | 61.8 |  |  | 
AUACCAUGCCGCCUAAUAGCUUUUUGCCCGUCUUAUAAAACAUGAGGAUCACCCAUGUAAAACUCGUGGCGUGACCC [Quarre] (puzzle: Sensor v3, turn-off variant 2) | 21.9 |  |  | apparent KD of MS2 coat protein [2]: 156 nM; apparent KD of MS2 coat protein [3]: 195 nM
CGUAGCAAUGUGAGGAUAUCUAGAGCCUCGGCUCUAGAGAAGGCACAUGAGGAUCACCCAUGUGAUUAGCUACG [BmEx4/9-B2] (Eterna round: R97, puzzle: Brourd's mod of Exclusion 4) |  | 597 | 405 | 
UAUAUAUAGUAAGGAUAUGUAAAUAUUUUAUAAACAGAAGGUACUGACAUGAGGAUCACCCAUGUUUUAGUGUGGGCAUGUAGA [JMF's solution 28] (Eterna round: R96, puzzle: Exclusion NG 1) |  |  |  | apparent KD of MS2 coat protein [4]: 66.2 nM
GUCUUGUCAGGAUAUCUUACAUAACAAUCGUAGUUACAAUUGGAGAAGGGACAUGAGGAUCACCCAUGUUAGCA [tap-tap-tappy36] (Eterna round: R97, puzzle: Exclusion 4) |  | 26.5 | 26.9 | 
ACAUGAGGAUCACCCAUGUCCGGCUGGUCUGUCUCGGCUGUCGAGGAUAUAGCACGGUAUCCGCGCUAGAAGGCGGGAGCCGGU [Aenatbe mod 87] (Eterna round: R96, puzzle: Exclusion NG 3) |  | 216 | 42.8 | apparent KD of MS2 coat protein [4]: 29 nM
CUUAGCCUAAAAUCACGCAAGCUUCUUGCUUGUCUUAAGACAUGAGGAUCACCCAUGUCCGGGCUGAACUUAUGGAA [Enonzave] (puzzle: Sensor v3, turn-off variant 2) | 21.1 |  |  | apparent KD of MS2 coat protein [2]: 17.8 nM; apparent KD of MS2 coat protein [3]: 17.4 nM
UUUUUUUUGGUAAGGAUAUGAUGCAGGAAACUGCGUCAGAAGGUACAUGAGGAUCACCCAUGUUAAUUUUUUUU [Explosion 11 - Jieux - Brourd's mod of Exclusion 4] (Eterna round: R97, puzzle: Brourd's mod of Exclusion 4) |  | 23 | 18.6 | 
UGGAAGUGAGGAUAUCCAAUAUAUGACAUGAGGAUCACCCAUGUUUCCACUCGUACCUCCGGAGAAGGCACAAGGU [Ex5 #56] (Eterna round: R97, puzzle: Exclusion 5) |  | 56.5 | 57.3 | 
CUAACAUGCUGGUGAUCAUACAUGAGGAUCACCCAUGUAACAAGCUUUUUGUUCGUCUUAUAAGAUUACUAGUAUGU [Stov1/10-B3] (Eterna round: R97, puzzle: Sensor, turn-off variant 1) |  | 38.8 | 52.3 | 
UUAUUAAGUGUGAGGAUAUGCUGGUCCUUGGAUCAGCAGAAGGCACAUGAGGAUCACCCAUGUACAAUAUUUUA [Mat - Exclusion 4 - JL Mod - D29] (puzzle: Brourd's mod of Exclusion 4) | 35.8 |  |  | 
AGUUGGCGAGGAUAUACAUGAGGAUCACCCAUGUGAAAUAGAAUAGUGAGGAAGAAAAGUAGAAGGCGCUGACA [Mat - Exclusion 3 - Mod of Salish D41] (puzzle: Exclusion 3) | 49.7 |  |  | 
UUAAUUAGCAGGCAAGAUCAUUACAUGAGGAUCACCCAUGUCGAGGAUAUCAGCUCGAUUAGAGCUGAGAAGGCGACAGCCUGC [ExNG3/13-A1] (Eterna round: R96, puzzle: Exclusion NG 3) |  | 1540 | 382 | apparent KD of MS2 coat protein [4]: 443 nM
AUGCGACAUGAGGAUCACCCAUGUGAGGAUAUGCGAAUGCAUACUUCGGUGUGAUAGAGUAGAAGGCGCAGGUA [EX1 #17] (Eterna round: R97, puzzle: Exclusion 1) |  | 472 | 761 | 
AGGACGGCAGGAUAUACAUGAGGAUCACCCAUGUCUGGUGUCGAGCUAAUUGUGCAUAGUAGAAGGGUCGCUCC [Eternabot (L1) Solution 39] (Eterna round: R97, puzzle: Exclusion 3) |  | 204 | 62.1 | 

Sequence | apparent KD of MS2 coat protein [1] [nM] | apparent KD of MS2 coat protein (input ligand: FMN 200 uM) [nM] | apparent KD of MS2 coat protein (input ligand: none) [nM] | also measured
CCGCUCCGUGUAGGAUAUCGGCGUGCCCUGCGCCGAGAAGGACAUGAGGAUCACCCAUGUAUGUUAUUAUCACGCGUGGCGCAC [Design 75] (Eterna round: R96, puzzle: Exclusion NG 1) |  | 18.7 | 19.9 | apparent KD of MS2 coat protein [4]: 15 nM
AUAGGCCGAGGAUAUGUAGCUAUGAACAUGAGGAUCACCCAUGUGAGUGUCGUGCGUAUUAUAGAAGGCGGUGCAU [EX5 B.14] (Eterna round: R97, puzzle: Exclusion 5) |  | 17 | 16.1 | 
CAAUACAAGCGAAGAUCCUACAUGAGGAUCACCCAUGUGCUCGUCUUAAAAGGUACUGAGACGAAAGUCUCGGUACC [Mat - Sensor, turn-off var - Eli Mod - D99] (Eterna round: R97, puzzle: Sensor, turn-off variant 1) |  | 280 | 367 | 
CCGAAUAAGCAGGAUAUCGUAUCGGAAACGAUACGAGAAGGGUUAACAUGAGGAUCACCCAUGUUCCUUAACGG [Fiskers Ex 6 - 17] (puzzle: Exclusion 6) | 17.4 |  |  | 
AAUUAUUGAUGAGGAUAUUGUGGUGAAACACGACAAGAAGGCAUUAUACACAUGAGGAUCACCCAUGUGAGCCUGAUGCAUAUA [Ex NG1 #59] (Eterna round: R96, puzzle: Exclusion NG 1) |  |  |  | apparent KD of MS2 coat protein [4]: 12.4 nM
UCCAAGACAGGAUAUCUAGAGCCAAACAUGAGGAUCACCCAUGUGAAUCUCAGCAAACGCAGAGAAGGGUCAAAAU [Orisinxe] (puzzle: Exclusion 5) | 23.2 |  |  | apparent KD of MS2 coat protein [2]: 30.1 nM; apparent KD of MS2 coat protein [3]: 30.9 nM
GCAGCAUAGAUAACAGUCUGAUACAUGAGGAUCACCCAUGUACAGGAUAUGGUCUGGAUUACAGGCCAGAAGGGUACAAGCUGC [Eli exng3 - 014] (Eterna round: R96, puzzle: Exclusion NG 3) |  | 10.9 | 12.7 | apparent KD of MS2 coat protein [4]: 9.69 nM
CUAGCUUCGGCUAGUACAAGCUUUUUGCUCGUCUUAUUAACAUGAGGAUCACCCAUGUUAAUGAGACCUCAUGUAUU [Sensor v3 - turn-off variant 2 - 9] (puzzle: Sensor v3, turn-off variant 2) | 15.2 |  |  | apparent KD of MS2 coat protein [2]: 12.7 nM; apparent KD of MS2 coat protein [3]: 11.1 nM
GUGUAGUGAGGAUAUACAUGAGGAUCACCCAUGUGAAUAAGAUAGAAUAAGAUAAAGUGUAGAAGGUAUAGUGU [Excluse me!!! 17 - Jieux - Exclusion 3] (puzzle: Exclusion 3) | 50 |  |  | 
GAACGUGGUGAGGAUAUCCGGUCUAACGUGCCAGGAGAAGGCGCCACAUGAGGAUCACCCAUGUGGGUCCCGCC [EX6 B.9] (Eterna round: R97, puzzle: Exclusion 6) |  | 26 | 14.9 | 
UAAAAGUCAGGAUAUGCGAGAGAUUGAAGUAUGGAAAGGUAGCAGAAGGGACAUGAGGAUCACCCAUGUGAGGA [JR_Exclu4_Sub095] (puzzle: Exclusion 4) | 31.7 |  |  | apparent KD of MS2 coat protein [2]: 51.1 nM; apparent KD of MS2 coat protein [3]: 29.5 nM
UUUUAACAUGAGGAUCACCCAUGUGAGGAUAUCGAAAUUUAUAUUAAUAUUAAUUAAACGAGAAGGCACAUUUU [JMF 27] (puzzle: Exclusion 1) | 72.5 |  |  | 
UUCCCACAUGAGGAUCACCCAUGUGAGGAUAUGGAGCGCGACCGCGCGGUCGCGUACACCAGAAGGCGCAUGAU [1st #80] (Eterna round: R97, puzzle: Exclusion 1) |  | 21 | 16.2 | 
CAGUACUGAGGAUAUACAUGAGGAUCACCCAUGUAUCCUAGCUAGGAAACUAGCAAAUGUAGAAGGCAGUACUG [Ex3: 818] (Eterna round: R96, puzzle: Exclusion 3) |  | 747 | 61.2 | apparent KD of MS2 coat protein [4]: 53.8 nM
CCGGCUUAGGAGGAUAUAGGAGUCGAUAGACACCUAGAAGGCCUAACAUGAGGAUCACCCAUGUGUCCUACCGG [Fiskers Ex 6 - 99] (puzzle: Exclusion 6) | 16.3 |  |  | 
AGGGAUAAAGGAUAUACAUGAGGAUCACCCAUGUUGAGGAAAGUGAGAUGAGGAGGAAGUAGAAGGUUAGGCGG [JR_Exclu3_Sub084] (puzzle: Exclusion 3) | 33.9 |  |  | apparent KD of MS2 coat protein [2]: 35.7 nM; apparent KD of MS2 coat protein [3]: 31.4 nM
AGAAAGGAAGGAUAUACAAGAAAGCUGGGCAACGUCUCAUAACAUGAGGAUCACCCAUGUAGAAGGUCCAGGAA [Tiusredi] (puzzle: Exclusion 2) | 21.2 |  |  | apparent KD of MS2 coat protein [2]: 35.7 nM; apparent KD of MS2 coat protein [3]: 19.3 nM
UCGGCGCGAGGAUAUGCGGCUGGUGCUUCGGGCCCUGGCGUACAUGAGGAUCACCCAUGUAGAAGGCGCGCCGC [Apr-15 SS2-41] (puzzle: Exclusion 2) | 10.2 |  |  | 
